Data: patent US20170247475A1 (Boehringer Ingelheim, published 2017)
Like-named read-outs stand apart in the source and are kept apart here.

Assays:
[1] = biological target: T1, recombinant human VEGF165 (human, UniProt P15692-4 27-191); assay: Biacore, periplasmic extract on hVEGF165 chip
T1 construct: also called hVEGF165; rhVEGF165
Description: (§1) Dissociation rates of inhibitory VHHs are analyzed on Biacore (Biacore T100 instrument, GE Healthcare). HBS-EP+ buffer is used as running buffer and experiments are performed at 25° C. […] After immobilization, surfaces are deactivated with 10 min injection of 1M ethanolamine pH8.5. A reference surface is activated and deactivated with respectively EDC/NHS and ethanolamine. Periplasmic extracts of VHHs are injected at a 10-fold dilution in running buffer for 2 min at 45 μl/min and allowed to dissociate for 10 or 15 min. Between different samples, the surfaces are regenerated with regeneration buffer. Data are double referenced by subtraction of the curves on the reference channel and of a blank running buffer injection. […] is evaluated by fitting a two phase decay model in the Biacore T100 Evaluation software v2.0.1.

VEGF [2] = assay: cell-based or functional assay
VEGF [3] = assay: cell-based or functional assay; remark: listed apart in the source
[4] = biological target: T1, recombinant human VEGF165; assay: VEGF165/VEGFR2 AlphaScreen
[5] = biological target: T1, recombinant human VEGF165; assay: Biacore on VEGF165 (Example 5.5)
Description: Samples are injected for 2 min and allowed to dissociate up to 20 min at a flow rate of 45 μI/min. In between sample injections, the chip surface is regenerated with 100 mM HCl. HBS-EP+(Hepes buffer pH7.4+EDTA) is used as running buffer. Binding curves are fitted using a Two State Reaction model by Biacore T100 Evaluation Software v2.0.1.

[6] = biological target: T1, recombinant human VEGF165; assay: hVEGF165/hVEGFR1-Fc competition ELISA
[7] = biological target: T1, recombinant human VEGF165; assay: hVEGF165/hVEGFR2-Fc competition AlphaScreen
Description: Finally, streptavidin donor beads (20 μg/ml) are added and after 1 hour of incubation in the dark, fluorescence is measured on the Envision microplate reader.

[8] = biological target: T1, recombinant human VEGF165; assay: VEGF165/VEGFR2 blocking AlphaScreen
[9] = biological target: T1, recombinant human VEGF165; assay: hVEGF165/hVEGFR2-Fc competition ELISA
VEGF [10] = assay: cell-based or functional assay; remark: listed apart in the source
[11] = biological target: T1, recombinant human VEGF165; assay: Biacore, periplasmic extract on hVEGF165 chip, two phase decay fit
Description: as §1

[12] = biological target: T1, recombinant human VEGF165; assay: AlphaScreen competition, 0.05 nM hVEGF165 and 0.05 nM hVEGFR2-Fc; blocked: hVEGFR2-Fc
[13] = biological target: T1, recombinant human VEGF165; assay: competition AlphaScreen, blocking of hVEGF165 binding to hVEGFR2-Fc
[14] = biological target: T1, recombinant human VEGF165; assay: AlphaScreen competition, 0.05 nM hVEGF165 and 0.05 nM hVEGFR2-Fc; blocked: hVEGFR2-Fc; remark: listed apart in the source
[15] = biological target: T1, recombinant human VEGF165; assay: competition AlphaScreen, blocking of hVEGF165 binding to hVEGFR2-Fc; remark: listed apart in the source
[16] = biological target: T1, recombinant human VEGF165; assay: as above; remark: listed apart in the source
[17] = biological target: T1, recombinant human VEGF165; assay: AlphaScreen competition, 0.05 nM hVEGF165 and 0.05 nM hVEGFR1-Fc; blocked: hVEGFR1-Fc
[18] = biological target: T1, recombinant human VEGF165; assay: as above; remark: listed apart in the source
[19] = biological target: T1, recombinant human VEGF165; assay: as above; remark: listed apart in the source
[20] = biological target: T1, recombinant human VEGF165; assay: as above; remark: listed apart in the source
[21] = biological target: T1, recombinant human VEGF165; assay: AlphaScreen competition, 0.05 nM hVEGF165 and 0.05 nM hVEGFR2-Fc; blocked: hVEGFR2-Fc; remark: listed apart in the source
[22] = biological target: T1, recombinant human VEGF165; assay: KD1; SPR Biacore T100 on hVEGF165
[23] = biological target: T1, recombinant human VEGF165; assay: competition AlphaScreen, blocking of hVEGF165 binding to hVEGFR2-Fc; remark: listed apart in the source

T1 sequence (P15692 other isoform, or with tags, fused parts or gaps limits assumed): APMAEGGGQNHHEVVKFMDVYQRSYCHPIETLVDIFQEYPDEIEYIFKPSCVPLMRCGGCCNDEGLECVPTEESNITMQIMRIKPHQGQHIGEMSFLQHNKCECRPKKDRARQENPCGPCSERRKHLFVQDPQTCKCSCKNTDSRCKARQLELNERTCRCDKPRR

B1: VEGFBII23B04 (VHH)
VHH: EVQLVESGGGLVQTGDSLRLSCEVSGRTFSSYSMGWFRQAQGKEREFVVAISKGGYKYDSVSLEGRFTISKDNAKNTVYLQINSLKPEDTAVYYCASSRAYGSSRLRLADTYEYWGQGTQVTVSS
notes: also called VEGFBII23B4; VEGFBII23B04 (wt)
- Binding level (RU) [1]: 768 RU
- IC50 (nM), VEGF HUVEC Erk phosphorylation assay (VEGF [2]): 0.37 nM
- % inhibition, VEGF HUVEC proliferation assay (VEGF [3]): 91%
- IC50 (nM), VEGF HUVEC proliferation assay (VEGF [3]): 0.36 nM
- % inhibition [4]: 100%
- IC50 [4]: 0.169 nM
- Kd [5]: 0.56 nM
- % inhibition [6]: 64%
- IC50 [6]: 0.5 nM
- % inhibition [7]: 100%
- IC50 [7]: 0.16 nM
- % inhibition [8]: 100%
- IC50 [8]: 0.152 nM
- % inhibition [9]: 100%
- IC50 [9]: 2.1 nM
- % inhibition, VEGF HUVEC proliferation assay (VEGF [10]): 92%
- IC50 (nM), VEGF HUVEC proliferation assay (VEGF [10]): 0.68 nM
- % fast [11]: 12%

B2: VEGFBII038 (VHH)
VHH: DVQLVESGGGLVQPGGSLRLSCAASGRTFSSYSMGWFRQAPGKEREFVVAISKGGYKYDAVSLEGRFTISRDNAKNTVYLQINSLRPEDTAVYYCASSRAYGSSRLRLADTYEYWGQGTLVTVSS
notes: also called VEGFBII0038; VEGFBII00038
- IC50 (read off the curve) [12]: ~0.5 nM
- Kd [5]: 0.36 nM
- IC50 (read off the curve) [13]: ~0.4 nM
- % inhibition [8]: 100%
- IC50 [8]: 0.143 nM
- IC50 (read off the curve) [14]: ~0.5 nM
- IC50 (read off the curve) [15]: ~0.4 nM
- IC50 (read off the curve) [16]: ~0.4 nM
- IC50 (read off the curve) [17]: ~0.8 nM
- IC50 (read off the curve) [18]: ~0.3 nM
- IC50 (read off the curve) [19]: ~0.5 nM
- IC50 (read off the curve) [20]: ~0.5 nM
- IC50 (read off the curve) [21]: ~0.2 nM
- Kd [22]: 0.75 nM
- IC50 (read off the curve) [23]: ~0.4 nM
- % inhibition, VEGF HUVEC proliferation assay (VEGF [10]): 92%
- IC50 (nM), VEGF HUVEC proliferation assay (VEGF [10]): 0.6 nM
